Among the data in patent publication US20170015742A1 (published 2017) are Kd and kon values, retold here.

Changes are numbered by the printed parent chain.

First the molecules themselves.
B1: CODV018 (bispecific antibody, human IgG1, kappa, L234A L235A)
heavy: EFVLTQSPGTLSLSPGERATLSCERSSGDIGDSYVSWYQQKPGQAPRLVIYADDQRPSGIPDRFSGSGSGTDFTLTISRLEPEDFAVYYCQSYDINIDIVFGGGTKVEIKGGGSGGGDTVLTQSPATLSLSPGERATLSCRASESVSTHMHWYQQKPGQAPRLLIYGASNLESGVPARFSGSGSGTDFTLTISSLEPEDFAVYFCQQSWNDPFTFGQGTKLEIKGGGSGASTKGPSVFPLAPSSKSTSGGTAALGCLVKDYFPEPVTVSWNSGALTSGVHTFPAVLQSSGLYSLSSVVTVPSSSLGTQTYICNVNHKPSNTKVDKKVEPKSCDKTHTCPPCPAPEAAGGPSVFLFPPKPKDTLMISRTPEVTCVVVDVSHEDPEVKFNWYVDGVEVHNAKTKPREEQYNSTYRVVSVLTVLHQDWLNGKEYKCKVSNKALPAPIEKTISKAKGQPREPQVYTLPPSREEMTKNQVSLTCLVKGFYPSDIAVEWESNGQPENNYKTTPPVLDSDGSFFLYSKLTVDKSRWQQGNVFSCSVMHEALHNAYTQKSLSLSPGK
light: EVQLVQSGSELKKPGASVKVSCKASGYTFTNYGMYWVRQAPGQGLEWMGWINTETGKPTYADDFKGRFVFSLDTSVSTAYLQISSLKAEDTAVYYCARTNYYYRSYIFYFDYWGQGTMVTVSSGEVTLRESGPALVKPTQTLTLTCTFSGFSLSTYGMGVGWIRQPPGKALEWLANIWWDDDKYYNPSLKNRLTISKDTSKNQVVLTMTNMDPVDTATYYCARIESIGTTYSFDYWGQGTMVTVSSGGRTVAAPSVFIFPPSDEQLKSGTASVVCLLNNFYPREAKVQWKVDNALQSGNSQESVTEQDSKDSTYSLSSTLTLSKADYEKHKVYACEVTHQGLSSPVTKSFNRGEC
notes: Anti-human VEGF-A/anti-human PDGF-BB cross-over DVD-Ig (CO-DVD-Ig); also called PR-1571831
B2: CODV012 (bispecific antibody, human IgG1, kappa, L234A L235A)
heavy: EVQLVQSGSELKKPGASVKVSCKASGYTFTNYGMYWVRQAPGQGLEWMGWINTETGKPTYADDFKGRFVFSLDTSVSTAYLQISSLKAEDTAVYYCARTNYYYRSYIFYFDYWGQGTMVTVSSGGGGSGGGEFVLTQSPGTLSLSPGERATLSCERSSGDIGDSYVSWYQQKPGQAPRLVIYADDQRPSGIPDRFSGSGSGTDFTLTISRLEPEDFAVYYCQSYDINIDIVFGGGTKVEIKGGGSGASTKGPSVFPLAPSSKSTSGGTAALGCLVKDYFPEPVTVSWNSGALTSGVHTFPAVLQSSGLYSLSSVVTVPSSSLGTQTYICNVNHKPSNTKVDKKVEPKSCDKTHTCPPCPAPEAAGGPSVFLFPPKPKDTLMISRTPEVTCVVVDVSHEDPEVKFNWYVDGVEVHNAKTKPREEQYNSTYRVVSVLTVLHQDWLNGKEYKCKVSNKALPAPIEKTISKAKGQPREPQVYTLPPSREEMTKNQVSLTCLVKGFYPSDIAVEWESNGQPENNYKTTPPVLDSDGSFFLYSKLTVDKSRWQQGNVFSCSVMHEALHNAYTQKSLSLSPGK
light: EVTLRESGPALVKPTQTLTLTCTFSGFSLSTYGMGVGWIRQPPGKALEWLANIWWDDDKYYNPSLKNRLTISKDTSKNQVVLTMTNMDPVDTATYYCARIESIGTTYSFDYWGQGTMVTVSSGGGGSGGGDTVLTQSPATLSLSPGERATLSCRASESVSTHMHWYQQKPGQAPRLLIYGASNLESGVPARFSGSGSGTDFTLTISSLEPEDFAVYFCQQSWNDPFTFGQGTKLEIKGGGSGRTVAAPSVFIFPPSDEQLKSGTASVVCLLNNFYPREAKVQWKVDNALQSGNSQESVTEQDSKDSTYSLSSTLTLSKADYEKHKVYACEVTHQGLSSPVTKSFNRGEC
notes: Anti-human VEGF-A/anti-human PDGF-BB cross-over DVD-Ig (CO-DVD-Ig); also called PR-1571824
B3: CODV014 (bispecific antibody, human IgG1, kappa, L234A L235A)
heavy: EVQLVQSGSELKKPGASVKVSCKASGYTFTNYGMYWVRQAPGQGLEWMGWINTETGKPTYADDFKGRFVFSLDTSVSTAYLQISSLKAEDTAVYYCARTNYYYRSYIFYFDYWGQGTMVTVSSGGGGSEFVLTQSPGTLSLSPGERATLSCERSSGDIGDSYVSWYQQKPGQAPRLVIYADDQRPSGIPDRFSGSGSGTDFTLTISRLEPEDFAVYYCQSYDINIDIVFGGGTKVEIKGGSASTKGPSVFPLAPSSKSTSGGTAALGCLVKDYFPEPVTVSWNSGALTSGVHTFPAVLQSSGLYSLSSVVTVPSSSLGTQTYICNVNHKPSNTKVDKKVEPKSCDKTHTCPPCPAPEAAGGPSVFLFPPKPKDTLMISRTPEVTCVVVDVSHEDPEVKFNWYVDGVEVHNAKTKPREEQYNSTYRVVSVLTVLHQDWLNGKEYKCKVSNKALPAPIEKTISKAKGQPREPQVYTLPPSREEMTKNQVSLTCLVKGFYPSDIAVEWESNGQPENNYKTTPPVLDSDGSFFLYSKLTVDKSRWQQGNVFSCSVMHEALHNAYTQKSLSLSPGK
light: B2 light
notes: Anti-human VEGF-A/anti-human PDGF-BB cross-over DVD-Ig (CO-DVD-Ig); also called PR-1571826
B4: CODV015 (bispecific antibody, human IgG1, kappa, L234A L235A)
heavy: B2 heavy
light: EVTLRESGPALVKPTQTLTLTCTFSGFSLSTYGMGVGWIRQPPGKALEWLANIWWDDDKYYNPSLKNRLTISKDTSKNQVVLTMTNMDPVDTATYYCARIESIGTTYSFDYWGQGTMVTVSSGGGGSGGGDTVLTQSPATLSLSPGERATLSCRASESVSTHMHWYQQKPGQAPRLLIYGASNLESGVPARFSGSGSGTDFTLTISSLEPEDFAVYFCQQSWNDPFTFGQGTKLEIKGGSRTVAAPSVFIFPPSDEQLKSGTASVVCLLNNFYPREAKVQWKVDNALQSGNSQESVTEQDSKDSTYSLSSTLTLSKADYEKHKVYACEVTHQGLSSPVTKSFNRGEC
notes: Anti-human VEGF-A/anti-human PDGF-BB cross-over DVD-Ig (CO-DVD-Ig); also called PR-1571827
B5: CODV016 (bispecific antibody, human IgG1, kappa, L234A L235A)
heavy: B2 heavy
light: EVTLRESGPALVKPTQTLTLTCTFSGFSLSTYGMGVGWIRQPPGKALEWLANIWWDDDKYYNPSLKNRLTISKDTSKNQVVLTMTNMDPVDTATYYCARIESIGTTYSFDYWGQGTMVTVSSGGGGSDTVLTQSPATLSLSPGERATLSCRASESVSTHMHWYQQKPGQAPRLLIYGASNLESGVPARFSGSGSGTDFTLTISSLEPEDFAVYFCQQSWNDPFTFGQGTKLEIKGGSRTVAAPSVFIFPPSDEQLKSGTASVVCLLNNFYPREAKVQWKVDNALQSGNSQESVTEQDSKDSTYSLSSTLTLSKADYEKHKVYACEVTHQGLSSPVTKSFNRGEC
notes: Anti-human VEGF-A/anti-human PDGF-BB cross-over DVD-Ig (CO-DVD-Ig); also called PR-1571828
B6: CODV021 (bispecific antibody, human IgG1, kappa, L234A L235A)
heavy: B2 heavy with D163E
light: B4 light
notes: Anti-human VEGF-A/anti-human PDGF-BB cross-over DVD-Ig (CO-DVD-Ig); also called PR-1577053
B7: CODV017 (bispecific antibody, human IgG1, kappa, L234A L235A)
heavy: DTVLTQSPATLSLSPGERATLSCRASESVSTHMHWYQQKPGQAPRLLIYGASNLESGVPARFSGSGSGTDFTLTISSLEPEDFAVYFCQQSWNDPFTFGQGTKLEIKGGGSGGGEFVLTQSPGTLSLSPGERATLSCERSSGDIGDSYVSWYQQKPGQAPRLVIYADDQRPSGIPDRFSGSGSGTDFTLTISRLEPEDFAVYYCQSYDINIDIVFGGGTKVEIKGGGSGASTKGPSVFPLAPSSKSTSGGTAALGCLVKDYFPEPVTVSWNSGALTSGVHTFPAVLQSSGLYSLSSVVTVPSSSLGTQTYICNVNHKPSNTKVDKKVEPKSCDKTHTCPPCPAPEAAGGPSVFLFPPKPKDTLMISRTPEVTCVVVDVSHEDPEVKFNWYVDGVEVHNAKTKPREEQYNSTYRVVSVLTVLHQDWLNGKEYKCKVSNKALPAPIEKTISKAKGQPREPQVYTLPPSREEMTKNQVSLTCLVKGFYPSDIAVEWESNGQPENNYKTTPPVLDSDGSFFLYSKLTVDKSRWQQGNVFSCSVMHEALHNAYTQKSLSLSPGK
light: EVTLRESGPALVKPTQTLTLTCTFSGFSLSTYGMGVGWIRQPPGKALEWLANIWWDDDKYYNPSLKNRLTISKDTSKNQVVLTMTNMDPVDTATYYCARIESIGTTYSFDYWGQGTMVTVSSGEVQLVQSGSELKKPGASVKVSCKASGYTFTNYGMYWVRQAPGQGLEWMGWINTETGKPTYADDFKGRFVFSLDTSVSTAYLQISSLKAEDTAVYYCARTNYYYRSYIFYFDYWGQGTMVTVSSGGRTVAAPSVFIFPPSDEQLKSGTASVVCLLNNFYPREAKVQWKVDNALQSGNSQESVTEQDSKDSTYSLSSTLTLSKADYEKHKVYACEVTHQGLSSPVTKSFNRGEC
notes: Anti-human VEGF-A/anti-human PDGF-BB cross-over DVD-Ig (CO-DVD-Ig); also called PR-1571830

One experiment deals with T1, Human VEGF-A 165 (human, UniProt P15692 207-395).
T1 construct: also called hVEGF165
T1 sequence (P15692 other isoform, or with tags, fused parts or gaps limits assumed): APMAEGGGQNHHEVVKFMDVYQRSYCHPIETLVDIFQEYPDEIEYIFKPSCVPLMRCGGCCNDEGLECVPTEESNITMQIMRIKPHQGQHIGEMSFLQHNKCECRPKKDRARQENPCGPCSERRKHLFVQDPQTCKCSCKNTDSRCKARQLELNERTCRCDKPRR
The experiment can be described thus: SPR (Biacore), method of Example 1.1. As for the experimental part:
(§1) Unreacted moieties on the biosensor surface were blocked with ethanolamine. For kinetic analysis, rate equations derived from the 1:1 Langmuir binding model were fitted simultaneously to multiple antigen injections (using global fit analysis) with the use of Scrubber 2 (BioLogic Software), Biacore Biaevaluation 4.0.1 software or Biacore T100 Evaluation software. Purified antibodies or DVD-Ig molecules were diluted in running buffer for capture across goat anti-human Fc reaction surfaces. Antibodies or DVD-Ig molecules to be captured as a ligand (1 μg/ml) were injected over reaction matrices at a flow rate of 10 μl/minute. During the assay, all measurements were referenced against the capture surface alone (i.e., with no captured antibody or DVD-Ig molecule). […] The equilibrium dissociation constant KD (M) of the reaction between antibodies and the target antigen was then calculated from the kinetic rate constants by the following formula: KD=Koff/Kₒₙ. Binding was recorded as a function of time and kinetic rate constants were calculated. In this assay, on-rates as fast as 10⁶M⁻¹s⁻¹ and off-rates as slow as 10⁻⁶ s⁻¹ could be measured.
The term Kd denotes the free concentration of one partner at which half of the binding sites on the other are occupied at equilibrium, for simple one-to-one binding. Consider B1, for which binding was put at a Kd of 31 nM.
A word on the kon: it is the rate constant with which the complex forms. The low end stands for slower complex formation, the high end for faster complex formation. Molecule B2 yielded a Kd of 0.028 nM and a kon of 2.7e+06 M⁻¹ s⁻¹.
B3 gave a Kd of 0.036 nM and an on-rate (kon) of 2.2e+06 M⁻¹ s⁻¹.
The matching figures for B4: 0.024 nM and 2.7e+06 M⁻¹ s⁻¹.
For B5 the same measures were 0.02 nM and 2.9e+06 M⁻¹ s⁻¹.
For B6 the same measures were 0.018 nM and 3.8e+06 M⁻¹ s⁻¹.
B7 gave a Kd of 57 nM.

The next experiment deals with T2, Human PDGF-BB (human, UniProt P01127 82-190).
T2 construct: also called hPDGF-BB
T2 sequence (P01127 82-190 limits assumed): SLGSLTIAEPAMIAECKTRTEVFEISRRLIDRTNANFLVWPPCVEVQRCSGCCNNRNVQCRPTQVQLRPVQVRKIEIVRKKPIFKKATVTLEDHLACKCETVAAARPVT
The experiment can be described thus: SPR (Biacore), method of Example 1.1. Here is the method: as §1
(In general: Surface plasmon resonance follows binding to a sensor surface in real time, without labels.)
For the molecule B1, the dissociation constant Kd was determined as 0.0053 nM and the kon worked out at 3.5e+07 M⁻¹ s⁻¹.
For B2 the same measures were 0.0015 nM and 7e+07 M⁻¹ s⁻¹.
The matching figures for B3: 0.0024 nM and 5.5e+07 M⁻¹ s⁻¹.
The matching figures for B4: 0.0013 nM and 7e+07 M⁻¹ s⁻¹.
In turn, B5 yielded a Kd of 0.0025 nM and a kon of 4.6e+07 M⁻¹ s⁻¹.
For B6 the same measures were 0.0019 nM and 6.1e+07 M⁻¹ s⁻¹.
The matching figures for B7: 0.0065 nM and 3e+07 M⁻¹ s⁻¹.
